Data taken from patent publication US20240102992A1.

Target: canine CD20 with C-terminal FLAG tag, expressed on A20/cCD20/luc or EL-4/cCD20/luc cells (dog) (UniProt Q3C2E2)
Assay: cell-based or functional assay

Sequence of UniProt Q3C2E2 (Q3C2E2 other isoform, or with tags, fused parts or gaps): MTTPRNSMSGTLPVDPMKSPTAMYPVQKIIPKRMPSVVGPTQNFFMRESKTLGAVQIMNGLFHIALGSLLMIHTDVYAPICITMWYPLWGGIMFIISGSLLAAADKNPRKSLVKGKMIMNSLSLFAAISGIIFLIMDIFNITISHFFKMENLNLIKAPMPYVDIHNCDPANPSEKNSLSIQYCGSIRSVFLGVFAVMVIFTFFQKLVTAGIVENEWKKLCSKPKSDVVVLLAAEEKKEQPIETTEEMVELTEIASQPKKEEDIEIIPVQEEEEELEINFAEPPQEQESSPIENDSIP

Substance: Dog IgG antibody (Jackson ImmunoResearch Laboratories, Inc.)
- cell-mediated cytotoxicity activity (lysis rate); targets A20/cCD20/luc and EL-4/cCD20/luc, effectors NK-92/cCD16γ, E/T 10:1: < 25%
